Assay results reported in article PMC4161306, “Regulation of Arabidopsis Flowering by the Histone Mark Readers MRG1/2 via Interaction with CONSTANS to Modulate FT Expression” (PLoS Genetics, 2014).

Assays:
CO [1] = assay: Bimolecular fluorescence complementation (BiFC) in tobacco leaf cells; assay type: cell-based, Arabidopsis; conditions: split YFP, Nicotiana benthamiana leaves, 2–3 days after infiltration, Figure 5C
Procedure: BiFC was performed as described by Sun et al.. For BiFC assays, MRG2C cDNA was amplified using primers MRG2-11/MRG2-12, and then cloned into pXY103 and pXY106 vectors. CO cDNA was amplified by primers CO-3/CO-4, and then cloned into a pXY104 vector. Leaves of 4- to 8-week-old Nicotiana benthamiana plants were co-infiltrated with Agrobacterium tumefaciens strain […] carrying transgene constructs. Localization of BiFC fluorescence was observed 2–3 days after infiltration using a confocal laser scanning microscope (LSM 710, ZEISS, Germany).

CO [2] = assay: Pull-down truncation analysis of MRG2 with GST-fused CO; assay type: binding, Arabidopsis; conditions: in vitro pull-down, Figure 5B
Procedure: (§1) MRG2 and MRG2C (442–984) cDNA were amplified with primers MRG2-1/MRG2-10 and MRG2-9/MRG2-10, respectively, and then cloned into pET-30a vector (Novagen, www.novagen.com). The resulting constructs and pET-30a-MRG2N were used for purification of His-tagged MRG2, MRG2C, and MRG2N proteins. CO cDNA was amplified using primers CO-1/CO-2, and then cloned into pGEX-4T-1 vector for purification of GST-fused CO proteins. Pulldown experiments were performed according to a previously described protocol.

MRG2 = assay: GST pull-down assay, His-tagged MRG2; assay type: binding, Arabidopsis; conditions: in vitro, purified proteins from E. coli, Figure 5B
Procedure: as §1

Molecule	interaction with CO in vivo (CO [1])	binding to CO (CO [2])	pull-down of His-tagged MRG2 (MRG2)
MRG2: Arabidopsis Morf Related Gene group protein MRG2 (protein, UniProt Q4V3E2 1-327, looked up) Protein MRG2: MGSPNAAAETDLTTDDFIGDTRRDSGSDTETNTDCDGEDLPLLLLPAPPGHFEEGERVLAKHSDCFYEAKVLKVEFKDNEWKYFVHYIGWNKSWDEWIRLDCLLKHSDENIEKQKEQGLKQQGIKSAMAWKVSKMKPRSPNVARGRKRKQDSVDTEKNVLPSDNLLSFNIPPALRKQLLDDFEFVTQMQKLVQLPRSPNVDGILKKYIDSQMKKHGRVTDSLEEILKGLRCYFDKALPVMLLYNNERKQYEESVSGGVSPSTVYGAEHLLRLFVKLPELLVHVNMAEETLKELQDNFVDILRFLRKNQSVLFVSTYKAVEEMEKKEG	interacted in vivo	–	–
MRG2C: MRG domain of MRG2, cDNA 442–984 (protein, left off: His tag, end not stated, kept) RKQDSVDTEKNVLPSDNLLSFNIPPALRKQLLDDFEFVTQMQKLVQLPRSPNVDGILKKYIDSQMKKHGRVTDSLEEILKGLRCYFDKALPVMLLYNNERKQYEESVSGGVSPSTVYGAEHLLRLFVKLPELLVHVNMAEETLKELQDNFVDILRFLRKNQSVLFVSTYKAVEEMEKKEG	interacted in vivo	contributed to binding to CO	–
MRG2N: chromodomain of MRG2, cDNA 1–369 (protein, left off: His tag, N-terminal, kept) MGSPNAAAETDLTTDDFIGDTRRDSGSDTETNTDCDGEDLPLLLLPAPPGHFEEGERVLAKHSDCFYEAKVLKVEFKDNEWKYFVHYIGWNKSWDEWIRLDCLLKHSDENIEKQKEQGLKQQG	–	not	–
GST-fused CO: GST-fused CONSTANS protein purified from E. coli (protein, left off: GST, end not stated, kept, GST-fused CONSTANS protein purified from E. coli) MLKQESNDIGSGENNRARPCDTCRSNACTVYCHADSAYLCMSCDAQVHSANRVASRHKRVRVCESCERAPAAFLCEADDASLCTACDSEVHSANPLARRHQRVPILPISGNSFSSMTTTHHQSEKTMTDPEKRLVVDQEEGEEGDKDAKEVASWLFPNSDKNNNNQNNGLLFSDEYLNLVDYNSSMDYKFTGEYSQHQQNCSVPQTSYGGDRVVPLKLEESRGHQCHNQQNFQFNIKYGSSGTHYNDNGSINHNAYISSMETGVVPESTACVTTASHPRTPKGTVEQQPDPASQMITVTQLSPMDREARVLRYREKRKTRKFEKTIRYASRKAYAEIRPRVNGRFAKREIEAEEQGFNTMLMYNTGYGIVPSF	–	–	could pull-down MRG2
